One assay concerns the target T1, rat NPR-B (Rattus norvegicus, UniProt P16067).
T1 construct: expressed in transfected cells; host or cells: HEK293 (293GCB cells)
T1 sequence (P16067 17-1047): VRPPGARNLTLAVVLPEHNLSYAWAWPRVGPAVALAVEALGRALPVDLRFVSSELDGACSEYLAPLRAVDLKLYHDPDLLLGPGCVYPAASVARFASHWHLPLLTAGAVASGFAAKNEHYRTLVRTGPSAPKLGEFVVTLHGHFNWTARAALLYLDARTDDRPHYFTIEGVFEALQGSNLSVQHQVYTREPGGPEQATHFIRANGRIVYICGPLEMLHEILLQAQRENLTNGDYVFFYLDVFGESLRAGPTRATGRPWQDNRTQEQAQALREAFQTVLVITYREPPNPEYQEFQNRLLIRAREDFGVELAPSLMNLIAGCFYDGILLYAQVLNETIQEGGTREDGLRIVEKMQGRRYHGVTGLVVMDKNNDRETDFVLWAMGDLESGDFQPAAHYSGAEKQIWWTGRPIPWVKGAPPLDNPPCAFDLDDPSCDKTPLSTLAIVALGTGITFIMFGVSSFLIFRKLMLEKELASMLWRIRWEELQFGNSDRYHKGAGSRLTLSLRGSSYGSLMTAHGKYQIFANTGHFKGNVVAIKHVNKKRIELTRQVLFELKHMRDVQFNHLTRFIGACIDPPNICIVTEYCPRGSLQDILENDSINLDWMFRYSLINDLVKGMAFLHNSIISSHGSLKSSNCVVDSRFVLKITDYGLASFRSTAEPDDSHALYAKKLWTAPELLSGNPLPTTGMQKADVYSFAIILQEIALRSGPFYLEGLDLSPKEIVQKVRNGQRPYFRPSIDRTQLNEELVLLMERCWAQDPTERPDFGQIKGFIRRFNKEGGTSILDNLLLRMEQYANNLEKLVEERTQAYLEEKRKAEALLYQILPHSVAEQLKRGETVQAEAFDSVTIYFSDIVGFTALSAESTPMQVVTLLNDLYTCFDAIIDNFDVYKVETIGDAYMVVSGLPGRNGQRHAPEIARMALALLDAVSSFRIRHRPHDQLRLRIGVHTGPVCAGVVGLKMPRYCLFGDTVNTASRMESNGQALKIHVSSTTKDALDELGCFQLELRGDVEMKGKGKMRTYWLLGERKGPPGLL
The experiment in a line: cGMP production in HEK293 cells stably expressing rat NPR-B. It is filed as cell-based. Conditions: stimulated for 3 minutes, cGMP RIA (FIG. 2). Here is the method:
(§1) HEK293 cells stably expressing rat NPR-A or NPR-B were prepared using methods similar to those described elsewhere (Fan et al., Mol. Pharmacol., 67:174-83 (2005); and Bryan and Potter, J. Biol. Chem., 277:16041-16047 (2002)). The cells were maintained in Dulbecco's modified Eagle's medium (DMEM) supplemented with 10% FBS, 100 units/mL penicillin, 100 μg/mL streptomycin, and 200 μg/mL G418. The cells were plated in 48-well plates and grown to 90% confluency. On the day of the assay, the cells were incubated in serum-free medium for 4 hours. The cells were pretreated for 10 minutes at 37° C. in DMEM containing 25 mM HEPES, pH 7.4 and 0.5 mM 1-methyl-3-isobutylxanthine by aspirating the starvation medium. After pretreatment, the medium was replaced with the same medium containing the indicated concentrations of natriuretic peptides. The cells were stimulated for 3 minutes with CNP, rat BNP, human BNP, ASBNP, or ASBNP.1. The reaction was stopped by aspiration of the medium and addition of 200 μL ice-cold 80% ethanol. Cyclic GMP concentrations were estimated from an aliquot of the ethanol extract using a Perkin Elmer cGMP RIA kit without acetylation as described elsewhere (Bryan and Potter, J. Biol. Chem., 277:16041-16047 (2002); and Abbey and Potter, J. Biol. Chem., 277:42423-30 (2002)).

For another assay, the target named is T2, rat NPR-A (Rattus norvegicus, UniProt P18910).
T2 construct: expressed in transfected cells; host or cells: HEK293 (293GCA cells)
T2 sequence (P18910 29-1057): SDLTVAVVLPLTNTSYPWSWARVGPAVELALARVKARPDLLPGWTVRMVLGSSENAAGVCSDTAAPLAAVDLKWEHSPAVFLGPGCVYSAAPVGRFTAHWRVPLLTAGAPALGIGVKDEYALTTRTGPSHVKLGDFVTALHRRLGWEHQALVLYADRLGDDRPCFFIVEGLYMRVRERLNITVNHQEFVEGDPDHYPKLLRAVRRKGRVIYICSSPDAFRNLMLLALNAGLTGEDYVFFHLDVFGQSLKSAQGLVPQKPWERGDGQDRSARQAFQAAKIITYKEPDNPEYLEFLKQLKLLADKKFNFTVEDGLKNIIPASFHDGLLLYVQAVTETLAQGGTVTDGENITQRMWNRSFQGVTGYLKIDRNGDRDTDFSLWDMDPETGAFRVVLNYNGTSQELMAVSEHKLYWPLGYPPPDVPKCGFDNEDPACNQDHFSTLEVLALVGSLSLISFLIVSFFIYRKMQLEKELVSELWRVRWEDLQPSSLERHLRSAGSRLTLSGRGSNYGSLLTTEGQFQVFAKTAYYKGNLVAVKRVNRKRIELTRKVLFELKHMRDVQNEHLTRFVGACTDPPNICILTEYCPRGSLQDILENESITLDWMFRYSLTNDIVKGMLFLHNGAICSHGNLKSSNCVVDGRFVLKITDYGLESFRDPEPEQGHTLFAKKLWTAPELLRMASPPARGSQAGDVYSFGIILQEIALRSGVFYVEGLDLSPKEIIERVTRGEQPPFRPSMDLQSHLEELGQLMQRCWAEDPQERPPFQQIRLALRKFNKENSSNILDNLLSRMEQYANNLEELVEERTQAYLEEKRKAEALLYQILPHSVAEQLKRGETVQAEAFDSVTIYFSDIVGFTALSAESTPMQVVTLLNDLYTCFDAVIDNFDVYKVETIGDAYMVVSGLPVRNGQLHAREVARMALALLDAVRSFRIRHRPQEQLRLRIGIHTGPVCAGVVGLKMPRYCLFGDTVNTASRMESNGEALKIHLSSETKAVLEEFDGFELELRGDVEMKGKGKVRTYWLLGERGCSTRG
Nature of the assay: cGMP production in HEK293 cells stably expressing rat NPR-A. It is filed as cell-based. Conditions: stimulated for 3 minutes, cGMP RIA (FIG. 1). The procedure: as §1

In another assay the target is T3, human NPR-C (Homo sapiens, UniProt P17342).
T3 sequence (P17342 27-541): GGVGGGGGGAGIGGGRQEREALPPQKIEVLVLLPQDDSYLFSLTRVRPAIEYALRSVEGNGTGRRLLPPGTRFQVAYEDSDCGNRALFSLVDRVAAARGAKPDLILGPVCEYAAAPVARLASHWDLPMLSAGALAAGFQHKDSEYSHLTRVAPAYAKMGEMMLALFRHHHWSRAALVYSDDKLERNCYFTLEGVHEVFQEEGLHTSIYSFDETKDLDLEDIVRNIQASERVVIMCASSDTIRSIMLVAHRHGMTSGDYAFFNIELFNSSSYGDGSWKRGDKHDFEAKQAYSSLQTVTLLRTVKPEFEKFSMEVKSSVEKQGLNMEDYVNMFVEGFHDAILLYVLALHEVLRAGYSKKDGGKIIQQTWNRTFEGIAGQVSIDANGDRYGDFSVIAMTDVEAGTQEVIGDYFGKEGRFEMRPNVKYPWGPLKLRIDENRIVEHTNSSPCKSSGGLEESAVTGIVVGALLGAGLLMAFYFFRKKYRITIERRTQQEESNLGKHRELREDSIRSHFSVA
Nature of the assay: Binding to human NPR-C. Conditions: FIG. 3. Here is the method:
Human BNP and ASBNP.1 binding to human NPR-C was assessed using methods similar to those described elsewhere (Fan et al., Mol. Pharmacol., 67:174-83 (2005)).

Here are results for 4 substances from US8357656B2, “Natriuretic peptide receptor-C agonists” (Mayo Foundation for Medical Education and Research, priority 2007, dated 2013).

As for “BNP: human BNP, natriuretic polypeptide of myocardial cell origin; main form is a 32 amino acid polypeptide with a ring structure”, the “activation of cells expressing rat NPR-B (cGMP)” value in the assay with rat NPR-B was “exhibited little, if any, activity”. For the same substance, the “activation of cells expressing rat NPR-A (cGMP)” value with rat NPR-A was “activated cells expressing rat NPR-A at concentrations in the mM range”. The “binding to human NPR-C” value with human NPR-C is “exhibited binding to human NPR-C”. On to “ASBNP.2: ASBNP.2 polypeptide, 60 amino acid residues in length with an alanine at position 43 (SEQ ID NO:3) (SPKMVQGSGCFGRKMDRISSSSGLGCKGKHPLPPRPPSPIPVADTVRVTLGFVVSGNHTL)”, for which, in the assay with rat NPR-B, the “activation of cells expressing rat NPR-B (cGMP)” value is reported as “exhibited little, if any, activity”. As for “ASBNP.1: ASBNP.1 polypeptide that is 42 amino acid residues in length (SEQ ID NO:1) (SPKMVQGSGCFGRKMDRISSSSGLGCKGKHPLPPRPPSPIPV)”, the “activation of cells expressing rat NPR-A (cGMP)” value in the assay with rat NPR-A is recorded as “did not exhibit any activity”. In addition, the “binding to human NPR-C” value in the assay with human NPR-C was “exhibited binding to human NPR-C”.

Regarding C-type natriuretic peptide [CNP], the “activation of cells expressing rat NPR-B (cGMP)” value with rat NPR-B is given as “activated cells expressing rat NPR-B”.
